The results in this text go back to article PMC3552960.

Experiment [1] addresses CCR5 Thr^2.56(82)Lys mutant receptor (human) (UniProt P51681).
The target of experiment [2] is wild type human CCR5 chemokine receptor (human) (UniProt P51681).
Experiment [3] deals with CCR5 Thr^2.56(82)Pro/Arg^6.32(225)Gln double-mutant receptor (human) (UniProt P51681).
In experiment [4] the target is CCR5 Thr^2.56(82)Lys/Arg^6.32(225)Gln double-mutant receptor (human) (UniProt P51681).
Experiment [5] addresses CCR5 Thr^2.56(82)Pro mutant receptor (human) (UniProt P51681).

In the case of “HIV-1C Du151 gp150 envelope glycoprotein (Env), carboxy-terminally truncated (natural protein)”, the Env-directed cell fusion (luciferase) on HOS-CD4-Luc cells; maximum fusion in experiment [1] came out at 4.6 % wild type; in experiment [3], 135 % wild type; in experiment [4] it was 16.8 % wild type; in experiment [5] it was 135 % wild type. Besides, the Env-directed cell fusion (luciferase) on HOS-CD4-Luc cells; maximum fusion efficiency (fusion coefficient) (fusion coefficient) came out at 0.84 in experiment [1], 18.8 in experiment [3], 1.9 in experiment [4] and 16.5 in experiment [5]. The same substance gave an Env-directed cell fusion (luciferase) on HOS-CD4-Luc cells; maximum fusion efficiency (fusion coefficient: luciferase activity divided by mean fluorescence) (fusion coefficient) in experiment [2] of 11.8.
